{"source": "the RNAGym collection of RNA variant scans (doi:10.7554/elife.80360)", "parents": {"B1": {"name": "Twister Ribozyme (parent)", "chain": "AACACUGCCAAUGCCGGUCCCAAGCCCGGAUAAAAGUGGAGGGGGCGG"}}}
{"variants_of": "B1", "test": "self-cleavage, relative activity (ratio to wild type); higher = more cleavage; co-transcriptional"}
{"variant": "A11C C46U", "self-cleavage": 0.736}
{"variant": "A11C C46A", "self-cleavage": 0.908}
{"variant": "G17U G43C", "self-cleavage": 0.0878}
{"variant": "C15U G42U", "self-cleavage": 0.235}
{"variant": "C5U C15G", "self-cleavage": 0.0698}
{"variant": "G16A G48A", "self-cleavage": 0.979}
{"variant": "A4G G24A", "self-cleavage": 0.0846}
{"variant": "U6C C19U", "self-cleavage": 0.131}
{"variant": "C8A C26U", "self-cleavage": 0.098}
{"variant": "U6G C26G", "self-cleavage": 0.0499}
{"variant": "C8A A22U", "self-cleavage": 0.127}
{"variant": "U18G A30G", "self-cleavage": 0.0594}
{"variant": "A11C A22C", "self-cleavage": 0.929}
{"variant": "C19A G41A", "self-cleavage": 0.0916}
{"variant": "G39A G41C", "self-cleavage": 0.126}
{"variant": "C26G G38U", "self-cleavage": 0.0977}
{"variant": "C3U C14U", "self-cleavage": 0.376}
{"variant": "A34C G47A", "self-cleavage": 0.122}
{"variant": "U6A C15U", "self-cleavage": 0.649}
{"variant": "G36C C46U", "self-cleavage": 0.585}
{"variant": "A2G G24U", "self-cleavage": 0.0773}
{"variant": "G39U C46G", "self-cleavage": 0.172}
{"variant": "C19G G28A", "self-cleavage": 0.211}
{"variant": "G7C C20G", "self-cleavage": 0.0473}
{"variant": "C9U C15A", "self-cleavage": 0.22}
{"variant": "U18G U37A", "self-cleavage": 0.063}
{"variant": "A33G G36A", "self-cleavage": 0.509}
{"variant": "A11G A30G", "self-cleavage": 0.674}
{"variant": "A11U C25G", "self-cleavage": 0.501}
{"variant": "U12G G48A", "self-cleavage": 0.593}
{"variant": "G29A A34C", "self-cleavage": 0.282}
{"variant": "G24C C25U", "self-cleavage": 0.114}
{"variant": "A4G U18G", "self-cleavage": 0.0583}
{"variant": "G17U A22U", "self-cleavage": 0.161}
{"variant": "A2C A34C", "self-cleavage": 0.108}
{"variant": "C14U G39A", "self-cleavage": 0.509}
{"variant": "G13C C20A", "self-cleavage": 0.0483}
{"variant": "G16U G39U", "self-cleavage": 0.225}
{"variant": "G16U G39A", "self-cleavage": 0.595}
{"variant": "A1C U31G", "self-cleavage": 0.144}
{"variant": "A2U U18C", "self-cleavage": 0.147}
{"variant": "C19A G28A", "self-cleavage": 0.184}
{"variant": "U12C G36U", "self-cleavage": 0.543}
{"variant": "G13A C26U", "self-cleavage": 0.142}
{"variant": "A22G C25U", "self-cleavage": 0.131}
{"variant": "G16C", "self-cleavage": 0.663}
{"variant": "A2U A22U", "self-cleavage": 0.11}
{"variant": "U18A G38U", "self-cleavage": 0.144}
{"variant": "C3U U31C", "self-cleavage": 0.391}
{"variant": "A2U G17U", "self-cleavage": 0.0826}
{"variant": "A10C G45U", "self-cleavage": 0.842}
{"variant": "C15A A23G", "self-cleavage": 0.141}
{"variant": "G42U G48U", "self-cleavage": 0.451}
{"variant": "C19A C20A", "self-cleavage": 0.0769}
{"variant": "A4U G36A", "self-cleavage": 0.056}
{"variant": "C27A A33G", "self-cleavage": 0.294}
{"variant": "C19G G47U", "self-cleavage": 0.138}
{"variant": "G44C", "self-cleavage": 0.971}
{"variant": "U31G A40G", "self-cleavage": 0.0918}
{"variant": "C19U G45U", "self-cleavage": 0.563}
{"variant": "C15U A30G", "self-cleavage": 0.759}
{"variant": "C3A U37C", "self-cleavage": 0.193}
{"variant": "A4U G38C", "self-cleavage": 0.252}
{"variant": "C5G U18A", "self-cleavage": 0.104}
{"variant": "C14A A23U", "self-cleavage": 0.508}
{"variant": "C9U G17A", "self-cleavage": 0.0711}
{"variant": "G28C", "self-cleavage": 0.894}
{"variant": "A23U G29C", "self-cleavage": 0.0484}
{"variant": "A10C U37C", "self-cleavage": 0.767}
{"variant": "A2U C20A", "self-cleavage": 0.08}
{"variant": "C5U C26A", "self-cleavage": 0.148}
{"variant": "G47U G48U", "self-cleavage": 1.57}
{"variant": "G13U G28A", "self-cleavage": 0.543}
{"variant": "G29C C46A", "self-cleavage": 0.708}
{"variant": "A32C G45U", "self-cleavage": 0.758}
{"variant": "G7A U12C", "self-cleavage": 0.455}
{"variant": "U6C G39C", "self-cleavage": 0.136}
{"variant": "A34G G39U", "self-cleavage": 0.102}
{"variant": "C26G G44C", "self-cleavage": 0.149}
{"variant": "C3G A30U", "self-cleavage": 0.427}
{"variant": "A4G G42A", "self-cleavage": 0.289}
{"variant": "A4U G24U", "self-cleavage": 0.0752}
{"variant": "A11C A32G", "self-cleavage": 0.788}
{"variant": "A4C G39U", "self-cleavage": 0.0723}
{"variant": "A4U U37A", "self-cleavage": 0.7}
{"variant": "C8A G39C", "self-cleavage": 0.148}
{"variant": "C20A G48A", "self-cleavage": 0.104}
{"variant": "A4C G28U", "self-cleavage": 0.104}
{"variant": "A4U C5G", "self-cleavage": 0.0771}
{"variant": "A22U A40U", "self-cleavage": 0.128}
{"variant": "C14G G36A", "self-cleavage": 0.0659}
{"variant": "A2G U12C", "self-cleavage": 0.316}
{"variant": "A1G U37A", "self-cleavage": 0.307}
{"variant": "A1G U18C", "self-cleavage": 0.335}
{"variant": "A10G C46A", "self-cleavage": 0.939}
{"variant": "U12C U37G", "self-cleavage": 0.72}
{"variant": "U18A G41U", "self-cleavage": 0.125}
{"variant": "U37A G39C", "self-cleavage": 0.121}
{"variant": "U18C U37G", "self-cleavage": 0.155}
{"variant": "C3U G29C", "self-cleavage": 0.277}
{"variant": "U6C C15U", "self-cleavage": 0.354}
{"variant": "U12G C27U", "self-cleavage": 0.496}
{"variant": "C9U G36A", "self-cleavage": 0.281}
{"variant": "G16U G47U", "self-cleavage": 0.653}
{"variant": "A22G G44U", "self-cleavage": 0.243}
{"variant": "G39U G47U", "self-cleavage": 0.187}
{"variant": "A1G C46G", "self-cleavage": 0.428}
{"variant": "C15G G38A", "self-cleavage": 0.0635}
{"variant": "C14G U37G", "self-cleavage": 0.0706}
{"variant": "C5U A35C", "self-cleavage": 0.82}
{"variant": "A4G C26A", "self-cleavage": 0.293}
{"variant": "C14G G41C", "self-cleavage": 0.0824}
{"variant": "A30C G45A", "self-cleavage": 0.733}
{"variant": "C8U G16A", "self-cleavage": 0.442}
{"variant": "A34C G45A", "self-cleavage": 0.144}
{"variant": "A34C G45C", "self-cleavage": 0.0937}
{"variant": "C19A A30C", "self-cleavage": 0.124}
{"variant": "C19U A33C", "self-cleavage": 0.795}
{"variant": "C14A C20U", "self-cleavage": 0.977}
{"variant": "A11U G36A", "self-cleavage": 0.559}
{"variant": "C20G G29C", "self-cleavage": 0.0469}
{"variant": "U31A G43A", "self-cleavage": 0.23}
{"variant": "G29U A30C", "self-cleavage": 1.06}
{"variant": "U12A C19G", "self-cleavage": 0.614}
{"variant": "A40G G48U", "self-cleavage": 0.131}
{"variant": "C15U A34U", "self-cleavage": 0.68}
{"variant": "C9U G38C", "self-cleavage": 0.509}
{"variant": "A22G G39C", "self-cleavage": 0.0779}
{"variant": "G17U C27G", "self-cleavage": 0.424}
{"variant": "G29C A33G", "self-cleavage": 0.573}
{"variant": "G17U G47U", "self-cleavage": 0.181}
{"variant": "A22G A32U", "self-cleavage": 0.278}
{"variant": "A23G C27A", "self-cleavage": 0.147}
{"variant": "G28A G36U", "self-cleavage": 0.15}
{"variant": "G28A G36A", "self-cleavage": 0.397}
{"variant": "G16U G43U", "self-cleavage": 0.313}
{"variant": "G45A G47U", "self-cleavage": 0.701}
{"variant": "G17U A40G", "self-cleavage": 0.0578}
{"variant": "C3U A34U", "self-cleavage": 0.314}
{"variant": "A10C G48C", "self-cleavage": 1.03}
{"variant": "A1U C14U", "self-cleavage": 0.08}
{"variant": "U18A A34C", "self-cleavage": 0.113}
{"variant": "A11C G16A", "self-cleavage": 0.234}
{"variant": "U6A G38C", "self-cleavage": 0.594}
{"variant": "C27G A33U", "self-cleavage": 0.0804}
{"variant": "C3A G7U", "self-cleavage": 0.0571}
{"variant": "C15A G42C", "self-cleavage": 0.182}
{"variant": "G7C G45U", "self-cleavage": 0.0816}
{"variant": "A1C U12G", "self-cleavage": 0.143}
{"variant": "G41A G42A", "self-cleavage": 0.129}
{"variant": "U12G G42C", "self-cleavage": 0.369}
{"variant": "C20G C27U", "self-cleavage": 0.0791}
{"variant": "A1U U6C", "self-cleavage": 0.0726}
{"variant": "A4G A11U", "self-cleavage": 0.996}
{"variant": "G24U A35C", "self-cleavage": 0.133}
{"variant": "U12G C21A", "self-cleavage": 0.0849}
{"variant": "A1U G36C", "self-cleavage": 0.0449}
{"variant": "C21A G44U", "self-cleavage": 0.108}
{"variant": "C14U G41U", "self-cleavage": 0.719}
{"variant": "G17C C46A", "self-cleavage": 0.107}
{"variant": "C15G C25G", "self-cleavage": 0.0786}
{"variant": "C26U A40G", "self-cleavage": 0.0722}
{"variant": "A34C G42U", "self-cleavage": 0.113}
{"variant": "C14U G36U", "self-cleavage": 0.421}
{"variant": "A35C G36A", "self-cleavage": 0.491}
{"variant": "C21G A22C", "self-cleavage": 0.0386}
{"variant": "C5A C25G", "self-cleavage": 0.0605}
